Results published in US20140205611A1.

How the values were obtained:
Assay in all cases: cell-based or functional assay
[1] = target: recombinant hGM-CSF from E. coli (Peprotech) (human) (UniProt P04141)
[2] = target: recombinant hGM-CSF derived from yeast (Leukine, Berlex) (human) (UniProt P04141)
[3] = target: recombinant hGM-CSF expressed in E. coli (Fa. Biomol #2514) (human) (UniProt P04141)
recombinant hGM-CSF expressed in E. coli (Fa. Biomol #2514) (human), sequence (P04141 18-144 limits assumed): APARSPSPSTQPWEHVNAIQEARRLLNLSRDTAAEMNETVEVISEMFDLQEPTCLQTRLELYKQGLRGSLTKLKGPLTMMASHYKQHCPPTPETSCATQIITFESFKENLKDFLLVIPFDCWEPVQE

recombinant hGM-CSF from E. coli (Peprotech) (human), sequence (P04141 18-144 limits assumed): as above
recombinant hGM-CSF derived from yeast (Leukine, Berlex) (human), sequence (P04141 other isoform, or with tags, fused parts or gaps limits assumed, form in doubt): as the sequence (P04141 18-144 limits assumed) above, with R23L counted along it

Row | Substance | TF-1 cell proliferation with 0.5 ng/mL rhGM-CSF (WST-1 assay) [1] [µg/mL] | TF-1 cell proliferation with 0.5 ng/mL rhGM-CSF (WST-1 assay) [2] [µg/mL] | IC50 in TF-1 assay, hGM-CSF (E. coli) at 1.0 ng/ml final concentration [3] [nM]
1 | human anti-human cytomegalovirus monoclonal antibody (hIgG) | < 2 | < 2 | 
2 | rat-anti-human-GM-CSF IgG2a BVD2-21C11 (Fa. BD, #554503) (antibody) |  |  | 8.26
